Measured values: the DeepSol protein solubility set

Assay: soluble on expression in E. coli; label from the status in PepcDB or PDB records

Sequence	soluble on expression in E. coli
MSSSRHFSIPYDEDVVHSVILENTPSPPPKPPRGILRKEAPMKPQRSALKIEPARDDDKENNSQPQARSQFKAKDTMEQMQSYFKRSISVLRKSEEHFTGAEAADILTAYIETHRNEFPRDNIGRSNAVKLLEIWLESNTIQSVESHQKKFVDSERTFYRLGGDSESLYIVNTPIASRNHDDSASVSRSESSRRSNSIKRLFSPFVRRNRSNSRGRDKDKDNLKDGSSTNLKSTWSLFSSSSEKNEKKLKKAEQQLIKEEEAEVYELSLFHLLSLIDVEFLEDVALPVQDSKNNASFLSSILGKVGLGASEERLDPHQEDHMDLLIETHPLIRDASQWFQMARCCAPLLYFEAKPVASNHKTSHNEQLYLWCRAALDAVKNRLEKMTQNGSSPLFPSEFAPLLTKIAQQLINDMDSGEKLSTAVMYIFLMVPHPIRKTIDQLVQWLQLTMRTDAVEDLRSPYYLGKKDPRRYKENVNVIIGELSSFIFPRGCMTNVQQDIFIETLVELRQKGKLGQRPAQLESSLRAKSVNGQIKWQRKERKHNSLEGDLTPVRYTVRRESIRSKTSKSKDGLNETDSALVTMINSVIDNKELSLTEKKKQLMNFKKFYPKLYNDFFPGMI	not soluble
GPGSMGRERMASSWRMPVYRSWQCSTPWSVSLPHPGPALPTLLVRHVCTPVSVCLYTNLSYCSLHAHNSIERLPPPLHAFVPTTHTHTHKHTYICIYACHSPLLRVSTWTKAFCLILRSRTLSTMSTKYLAAYALASLSKASPSQADVEAICKAVHIDVDQATLAFVMESVTGRDVATLIAEGAAKMSAMPAASSGAAAGVTASAAGDAAPAAAAAKKDEPEEEADDDMGFGLFD	not soluble
MLEKNPTLEKLLKSLEDIQAIDIKIIDVHKQTTITDFMVVTSGRSSRHVKSIAQKVLEDMKVAGLPCLSSTGIEHGDWALIDFGDIILHVMQPEFRHFYNLEGLWEEHPGNSLEHHHHHH	not soluble
GPLGSMEPPLPVGAQPLATVEGMEMKGPLREPCALTLAQRNGQYELIIQLHEKEQHVQDIIPINSHFRCVQEAEETLLIDIASNSGCKIRVQGDWIRERRFEIPDEEHCLKFLSAVLAAQKAQS	soluble
MTIQQSVTHQLLIPITFEGKEHTTITLQRPKTKDLQAIDKKEGVEQTIAMIARLSGWPHEAISELDINDLSSIGEILESFIKRRDTSTGKPPQN	soluble
QTIKDFLAVAMKKWTAPFEPFQLIDNIYYVGTDGIAVYVIKTSQGLILMDTAMPQSTGMIKDNIAKLGFKVADIKLILNTHAHLDHTGGFAEIKKETGAQLVAGERDKPLLEGGYYPGDEKNEDLAFPAVKVDRAVKEGDRVTLGDTTLTAHATPGHSPGCTSWEMTVKDGKEDREVLFFCSGTVALNRLVGQPTYAGIVDDYRATFAKAKAMKIDVLLGPHPEVYGMQAKRAEMKDGAPNPFIKPGELVTYATSLSEDFDKQLAKQTAALEKK	soluble
MSLKLKTLALSLLAAGVLAGCSSHSSNMANTQMKSDKIIIAHRGASGYLPEHTLESKALAFAQHSDYLEQDLAMTKDGRLVVIHDHFLDGLTDVAKKFPYRHRKDGRYYVIDFTLKEIQSLEMTENFETKDGKQAQVYPNRFPLWKSHFRIHTFEDEIEFIQGLEKSTGKKVGIYPEIKAPWFHHQNGKDIATETLKVLKKYGYDKKTDMVYLQTFDFNELKRIKTELLPQMGMDLKLVQLIAYTDWKETQEKDPKGYWVNYNYDWMFKPGAMAEVVKYADGVGPGWYMLVNKEESKPDNIVYTPLVKELAQYNVEVHPYTVRKDALPEFFTDVNQMYDALLNKSGATGVFTDFPDTGVEFLKGIKEGHHHHHH	soluble
SNAMYKEGACLYRNPLRSKSDVKDWRMEGGGQISFDDHSLHLSHVQDEAHFVFWCPETFPDGIIVTWDFSPIEQPGLCMLFFAAAGIRGEDLFDPSLRKRTGTYPEYHSGDINALHLSYFRRKYAEERAFRTCNLRKSRGFHLAAMGADPLPSPDDADSPYRMKLIKDKGYVHFSINGLPILEWMDDGSTYGPVLTKGKIGFRQMAPMKAVYRDFAVHQAVRR	soluble
MNKPENFEEAIEIKRDPEDFSVEEIADIEPDPNGKYTIIKARVRDWDTNRIAAEIARRLHMSRKRVTFAGTKDKRAVKLQYFCINSADVDVASLSGIKDFEVIESFKSSHYLTLGDLIANHFKIRFYGIDPEMFRERYVHIISKGGFPNFFGDQRFGSRRRNTHEIGKLIIKGEYEEAVKKYIYDEKYDKESYRKHFIDTLDYKTALERFPHSLSFERSLIGYYARNGTFKGAFDSLPKNLTIMFVHAYQSYLFNRILDERLKIYGLNAVLPGDIAFPVDAYFNPDKSKPIEVNSYNREKISKLVSSDKIRISLPIFGYKTWIDNSDFGDVEYGILKEEGISQDDFKNKDFAYLSSSGDRRIISAKPINFSLENNVVEFTLGKGIYATVFLSSIGRLKENVYSDSEAELLEHHHHHH	soluble
MESGREVWPRDPKKAKQAIKQAEFKCEIDDTHETFVSEASRKNYMEAHHLIPLRMQHDFENSLDVVGNIVSICPNCHRLIHYGRDKDKKKVLELLFELEHHHHHH	soluble
MENFSLLYSSEEDALLSYADIRNFQLVWNMVDIEQKRSIPVRRVKFLLRLLKGRLEVNDESDGLLFKHMCHEMERLHNGDDVSFHDVLNMLSYRSVDIRKSLQLEELLQREELEYIIEEEVAKHTIRAWLENCLKNIKAKQNNTLGKMSSIGSTFAFPQSQEVLTKGVVLTEASPEEDSLQGDKGSGKKKAQRGNSITEIVAEAQKKSVKRATDKISERRGTLRQMQMGTYDELEEVEEDEDTDGEIRRSSFEYSGVDMIQMSHEKQLEDVKTWWTLCD	not soluble
MLRIAKEALTFDDVLLVPAHSTVLPNTADLSTQLTKTIRLNIPMLSAAMDTVTEARLAIALAQEGGIGFIHKNMSIERQAEEVRRVKKHESGVVTDPQTVLPTTTLHEVKALTERNGFAGYPVVTEDNELVGIITGRDVRFVTDLNQPVSVYMTPKERLVTVREGEAREVVLAKMHEKRVEKALVVDDNFHLLGMITVKDFQKAERKPNSCKDEQGRLRVGAAVGAGAGNEERVDALVAAGVDVLLIDSSHGHSEGVLQRIRETRAKYPDLQIIGGNVATGAGARALAEAGCSAVKVGIGPGSICTTRIVTGVGVPQITAVSDAVEALEGTGIPVIADGGIRFSGDIAKAIAAGASAVMVGSMLAGTEESPGEIELYQGRSYKSYRGMGSLGAMSKGSSDRYFQSDNAADKLVPEGIEGRVAYKGRLKEIIHQQMGGLRSCMGLTGCATIDELRTKAEFVRISGAGIQESHVHDVTITKESPNYRLGS	not soluble
MGSDKIHHHHHHMPTVKLTKNITIMTGSPNTLIYDNRVVIDLGGKNSSVDINAEVQLATHGHADHIAGLLKKDAKIRYLPKEDYWSLTLMGRRAMIYGCSSKDSDIFTFDYVKENIESIDIEVRTSEIEVIKLPGHTPGHSGYIVDNVLYAGDAFFGEKVLEGFSVPFYTDFWTALESLNKVKELAKSVNNIVISHGPVYTNKNKMVSILESNIIYAQNLIGKILDMLSNNELTVEEIVVKLKQDLTPSNVLLNSVVVRSILFGLENIEYNVSQKGLVFRRRVH	not soluble
MDLFADAPLTLPDADLRYLPHWLDAPLASAWLLRLEQETPWEQPILRIHGEEHPTPRLVAWYGDPDAAYRYSGQVHRPLPWTALLGEIRERVEREVGQRVNGVLLNYYRDGQDSMGWHSDDEPELRRDPLVASLSLGGSRRFDLRRKGQTRIAHSLELTHGSLLVMRGATQHHWQHQVAKTRRSCMPRLNLTFRLVYPQPLEHHHHHH	soluble
MKTKFYDYQGEHLILYFAGWGTPPDAVNHLILPENHDLLICYDYQDLNLDFDLSAYRHIRLVAWSMGVWVAERVLQGIRLKSATAVNGTGLPCDDSFGIPYAIFKGTLENLTENTRLKFERRICGDKASFERYQLFPARPFDEIHQELTALFAMIQQDKRIDLIHWANAWVSSRDKIFTPANQHQYWALRCAVQEIEGEHYVFSRFTHWSALWDH	not soluble
SLSFLYFNDNSKIANAPLKNRFEKTQKESLIIKNNNEDKKAKSKPKFYLIIDDVGYDEFMLEQFIKLNLKITYAIIPFLPKSMSLYKKLKNANKTVIIHFPMQSKHRNSIEKFHINIKDKKEEIHKKIEKAFKKYPDAKIMNNHMGSLITSNKDLMKIILEKLKEIDRYFFDSVTIAGSVPEIIGKEIGVKVEKRDVFLDSKDTEESVTKELEKAKNIARKNGMVKVIGHIWSKNTLKVLKKEGPDLNQEFEFDNLLNLYEETIR	soluble
MGSSHHHHHHSSGRENLYFQGHMLLHIPAIFTAEEVSRIRAALEQAEWADGKATAGYQSAKAKHNLQLPQDHPLAREIGEAMLQRLWNHPLFMSAALPLKVFPPLFNCYTGGGSFDFHIDNAVRDVHGGRERVRTDLSSTLFFSDPEDYDGGELVIQDTYGLQQVKLPAGDLVLYPGTSLHKVNPVTRGARYASFFWTQSLVREDSQRTLLFEMDQSIQRLTRDVPDHPSLIRLTGTYHNLLRRWSEL	soluble
MSNSNKLIAEKNGSRYGRMIHPWLRKKQDMLADTPSRREGMTYEEELSKRQQGGVFIFDIAMQLTHGKGEHGLSGVAATLFNRFFNVHSLKRCDFRDVAAACVFLAGKNEDAPKKLKYVVTQLWQFKYPHNKQFQSEQHFLDQCNVVTLIEDVLLKTISFDINVDLPHQYVLKLMRDVEKGRNVYKDMVKTAYYMATDVLIITDWSVRYSCASIATACVNIAAFFHNINMDDIVPFELSDRWYRLEDQSMTREEVEAMTKEFLDIFSRNPQFHIGSLKKIDPLGKVKIVGMPPQVSSTVTPSGSSSNLKKIDLESYKGRPKPLSNSSDSPSTRPSFLPDVKNQKVVEQELMEQRMKEAAQQKIHRNGHRPSSSSHPLHHHSTSSSASNNSNHQNRSSSGLSAHQHQKPYNEDSRSAKRSMMYEETNSSKKPRIDYKMSFVASSSTTIATMHNDHFSQTTHQQNISTYARGVNEMMLNQVAPPPLMSVSAQPSTYQKMCMEYQRNPADSRHTMSSTQQISPPDEPSPPVSQILLPPPPPPPILPPRLDEMEEGELV	not soluble
MSLSRLSSPQTFSRVFIVARGAATGHAVAPSSDNSIGYFEKIAYRFKGIPLPTETEAPKSMFDACNKEWSAPELLPSVPKDFKEHPDRDLTNYPYPSRPMYPPKTRLLMMPDSWFTAFQKVTGTSGPYLFFGGLFAFLVNKELWVFEEQGHMTVGWILFYLLVSRTAGYKIDAGLYKDYQERVGFFKGLIQEDLKEAVDFRKTSAAQTASFAALKEGMPTSLKDSMQLQLEAAYRKNVQTISNEIKRRIEYLKETEETKARFERDQLLKLINDSVEKQVSQKDFQEKFLQNAIQQLKGIAV	not soluble
MNVIEVEDVSFRYGNSREYSLRHINLEIRKGEFLGIIGPSGSGKSTFCLTLNGLIPHSIAGEFHGNVIVDGLNTREHSVSELSTKVGLVFQNPDSQLFNMTVLEEVAFALENLGIERDEMWRRIRWALKLVRLWDKREEFPPNLSGGEKQRLAIASVLVMKPKVLVLDEPTSQLDPLGREEVLGLIKLLNKEEKITIILVEHNTDFLLEHADRIVVFDKGRIVLEGKPEDVFENVEFLRTIGVKLPTRVKIGYELKKRGLVERAVLTRDEVVEVLKWAYLRGKS	soluble
MKLIILDRDGVVNQDSDAFVKSPDEWIALPGSLQAIARLTQADWTVVLATNQSGLARGLFDTATLNAIHDKMHRALAQMGGVVDAIFMCPHGPDDGCACRKPLPGMYRDIARRYDVDLAGVPAVGDSLRDLQAAAQAGCAPWLVQTGNGRKTLAQGGLPEGTRVCEDLAAVAEQLLQEA	soluble
MKKLYGVIGNPIGHSMSPDIHNASLKDLGLDGHYHAFKVEENDLEDAVKGIRALGVQGINVTVPHKVSIMDYLDHIDESAKVLGAVNTVRREGDKLVGYNTDGEGFVKSLMKVLDKPISELSFLMIGAGGAARAIFTTFVRNTPKKFDICNRTLEKAKRLTEATPSFHNKEVLSIKEAEERLEQYDVIIHTTSVGMYPNVDDVPLSLQRAASSAVVCDIVYNPIQTALLKEASQKGLKTLDGVGMFVEQAALSFQLWTGQEPNIEKMRSIVIGKLGGTECLEHHHHHH	soluble
